By Ki is commonly meant the dissociation constant of the complex between target and ligand, obtained from inhibition or displacement. A higher Ki goes with lower affinity.

*1 amine or outer side, *2 acyl side, *3 side chain or, on linkers, in order; H or OH if unused. Side-chain parts run from the residue outwards. The star is where a group is joined. C18 diacid = O=C(O)CCCCCCCCCCCCCCCCC(=O)*; γGlu = O=C(O)[C@H](CCC(=O)[*:2])N[*:1]; Isovaleryl = CC(C)CC(=O)*; AEEA = NCCOCCOCC(=O)O

For 6 molecules, Ki results are on record in patent US20210139548A1 (published 2021).

T1: human neuropeptide Y2 receptor (human, UniProt P49146 1-381)
T1 construct: whole, on cells; also called hNPY2 receptor; hNPY2-R
T1 sequence (looked up): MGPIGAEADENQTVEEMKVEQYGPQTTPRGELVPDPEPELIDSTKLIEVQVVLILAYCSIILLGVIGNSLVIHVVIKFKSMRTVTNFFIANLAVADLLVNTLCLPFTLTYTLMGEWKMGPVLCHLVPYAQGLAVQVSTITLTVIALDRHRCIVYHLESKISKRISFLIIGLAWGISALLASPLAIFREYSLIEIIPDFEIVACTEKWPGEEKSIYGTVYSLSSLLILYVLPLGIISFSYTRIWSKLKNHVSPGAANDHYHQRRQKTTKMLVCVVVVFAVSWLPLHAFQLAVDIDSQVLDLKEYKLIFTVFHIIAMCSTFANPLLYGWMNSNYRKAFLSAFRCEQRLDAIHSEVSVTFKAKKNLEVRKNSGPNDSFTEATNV

B1: Compound 55 (peptide)
peptide: Isovaleryl-APEK([AEEA-AEEA-γGlu-C18 diacid])PEEDASPEEAQRYYVSLRHYYNWLTRQRY-NH2
SMILES: CC(C)CC(=O)N[C@@H](C)C(=O)N1CCC[C@H]1C(=O)N[C@@H](CCC(=O)O)C(=O)N[C@@H](CCCCNC(=O)COCCOCCNC(=O)COCCOCCNC(=O)CC[C@H](NC(=O)CCCCCCCCCCCCCCCCC(=O)O)C(=O)O)C(=O)N1CCC[C@H]1C(=O)N[C@@H](CCC(=O)O)C(=O)N[C@@H](CCC(=O)O)C(=O)N[C@@H](CC(=O)O)C(=O)N[C@@H](C)C(=O)N[C@@H](CO)C(=O)N1CCC[C@H]1C(=O)N[C@@H](CCC(=O)O)C(=O)N[C@@H](CCC(=O)O)C(=O)N[C@@H](C)C(=O)N[C@@H](CCC(N)=O)C(=O)N[C@@H](CCCNC(=N)N)C(=O)N[C@@H](Cc1ccc(O)cc1)C(=O)N[C@@H](Cc1ccc(O)cc1)C(=O)N[C@H](C(=O)N[C@@H](CO)C(=O)N[C@@H](CC(C)C)C(=O)N[C@@H](CCCNC(=N)N)C(=O)N[C@@H](Cc1c[nH]cn1)C(=O)N[C@@H](Cc1ccc(O)cc1)C(=O)N[C@@H](Cc1ccc(O)cc1)C(=O)N[C@@H](CC(N)=O)C(=O)N[C@@H](Cc1c[nH]c2ccccc12)C(=O)N[C@@H](CC(C)C)C(=O)N[C@H](C(=O)N[C@@H](CCCNC(=N)N)C(=O)N[C@@H](CCC(N)=O)C(=O)N[C@@H](CCCNC(=N)N)C(=O)N[C@@H](Cc1ccc(O)cc1)C(N)=O)[C@@H](C)O)C(C)C
B2: Compound 56 (peptide)
peptide: Isovaleryl-APEK([AEEA-AEEA-γGlu-C18 diacid])PEADAEPEELQRYYVSLRHYYNWLTRQRY-NH2
SMILES: CC(C)CC(=O)N[C@@H](C)C(=O)N1CCC[C@H]1C(=O)N[C@@H](CCC(=O)O)C(=O)N[C@@H](CCCCNC(=O)COCCOCCNC(=O)COCCOCCNC(=O)CC[C@H](NC(=O)CCCCCCCCCCCCCCCCC(=O)O)C(=O)O)C(=O)N1CCC[C@H]1C(=O)N[C@@H](CCC(=O)O)C(=O)N[C@@H](C)C(=O)N[C@@H](CC(=O)O)C(=O)N[C@@H](C)C(=O)N[C@@H](CCC(=O)O)C(=O)N1CCC[C@H]1C(=O)N[C@@H](CCC(=O)O)C(=O)N[C@@H](CCC(=O)O)C(=O)N[C@@H](CC(C)C)C(=O)N[C@@H](CCC(N)=O)C(=O)N[C@@H](CCCNC(=N)N)C(=O)N[C@@H](Cc1ccc(O)cc1)C(=O)N[C@@H](Cc1ccc(O)cc1)C(=O)N[C@H](C(=O)N[C@@H](CO)C(=O)N[C@@H](CC(C)C)C(=O)N[C@@H](CCCNC(=N)N)C(=O)N[C@@H](Cc1c[nH]cn1)C(=O)N[C@@H](Cc1ccc(O)cc1)C(=O)N[C@@H](Cc1ccc(O)cc1)C(=O)N[C@@H](CC(N)=O)C(=O)N[C@@H](Cc1c[nH]c2ccccc12)C(=O)N[C@@H](CC(C)C)C(=O)N[C@H](C(=O)N[C@@H](CCCNC(=N)N)C(=O)N[C@@H](CCC(N)=O)C(=O)N[C@@H](CCCNC(=N)N)C(=O)N[C@@H](Cc1ccc(O)cc1)C(N)=O)[C@@H](C)O)C(C)C
B3: Compound 63 (peptide)
peptide: Isovaleryl-APEK([AEEA-AEEA-γGlu-C18 diacid])PEEDASPEELQRYYVSLRAYYNWLTRQRY-NH2
SMILES: CC(C)CC(=O)N[C@@H](C)C(=O)N1CCC[C@H]1C(=O)N[C@@H](CCC(=O)O)C(=O)N[C@@H](CCCCNC(=O)COCCOCCNC(=O)COCCOCCNC(=O)CC[C@H](NC(=O)CCCCCCCCCCCCCCCCC(=O)O)C(=O)O)C(=O)N1CCC[C@H]1C(=O)N[C@@H](CCC(=O)O)C(=O)N[C@@H](CCC(=O)O)C(=O)N[C@@H](CC(=O)O)C(=O)N[C@@H](C)C(=O)N[C@@H](CO)C(=O)N1CCC[C@H]1C(=O)N[C@@H](CCC(=O)O)C(=O)N[C@@H](CCC(=O)O)C(=O)N[C@@H](CC(C)C)C(=O)N[C@@H](CCC(N)=O)C(=O)N[C@@H](CCCNC(=N)N)C(=O)N[C@@H](Cc1ccc(O)cc1)C(=O)N[C@@H](Cc1ccc(O)cc1)C(=O)N[C@H](C(=O)N[C@@H](CO)C(=O)N[C@@H](CC(C)C)C(=O)N[C@@H](CCCNC(=N)N)C(=O)N[C@@H](C)C(=O)N[C@@H](Cc1ccc(O)cc1)C(=O)N[C@@H](Cc1ccc(O)cc1)C(=O)N[C@@H](CC(N)=O)C(=O)N[C@@H](Cc1c[nH]c2ccccc12)C(=O)N[C@@H](CC(C)C)C(=O)N[C@H](C(=O)N[C@@H](CCCNC(=N)N)C(=O)N[C@@H](CCC(N)=O)C(=O)N[C@@H](CCCNC(=N)N)C(=O)N[C@@H](Cc1ccc(O)cc1)C(N)=O)[C@@H](C)O)C(C)C
B4: Compound 61 (peptide)
peptide: Isovaleryl-APEK([AEEA-AEEA-γGlu-C18 diacid])PPEDASPEEIQRYYVSLRHYYNWLTRQRY-NH2
SMILES: CC[C@H](C)[C@H](NC(=O)[C@H](CCC(=O)O)NC(=O)[C@H](CCC(=O)O)NC(=O)[C@@H]1CCCN1C(=O)[C@H](CO)NC(=O)[C@H](C)NC(=O)[C@H](CC(=O)O)NC(=O)[C@H](CCC(=O)O)NC(=O)[C@@H]1CCCN1C(=O)[C@@H]1CCCN1C(=O)[C@H](CCCCNC(=O)COCCOCCNC(=O)COCCOCCNC(=O)CC[C@H](NC(=O)CCCCCCCCCCCCCCCCC(=O)O)C(=O)O)NC(=O)[C@H](CCC(=O)O)NC(=O)[C@@H]1CCCN1C(=O)[C@H](C)NC(=O)CC(C)C)C(=O)N[C@@H](CCC(N)=O)C(=O)N[C@@H](CCCNC(=N)N)C(=O)N[C@@H](Cc1ccc(O)cc1)C(=O)N[C@@H](Cc1ccc(O)cc1)C(=O)N[C@H](C(=O)N[C@@H](CO)C(=O)N[C@@H](CC(C)C)C(=O)N[C@@H](CCCNC(=N)N)C(=O)N[C@@H](Cc1c[nH]cn1)C(=O)N[C@@H](Cc1ccc(O)cc1)C(=O)N[C@@H](Cc1ccc(O)cc1)C(=O)N[C@@H](CC(N)=O)C(=O)N[C@@H](Cc1c[nH]c2ccccc12)C(=O)N[C@@H](CC(C)C)C(=O)N[C@H](C(=O)N[C@@H](CCCNC(=N)N)C(=O)N[C@@H](CCC(N)=O)C(=O)N[C@@H](CCCNC(=N)N)C(=O)N[C@@H](Cc1ccc(O)cc1)C(N)=O)[C@@H](C)O)C(C)C
B5: Compound 65 (peptide)
peptide: Isovaleryl-APEK([AEEA-AEEA-γGlu-C18 diacid])PEEDASPEELQRYYVEIRHYYNWLTRQRY-NH2
SMILES: CC[C@H](C)[C@H](NC(=O)[C@H](CCC(=O)O)NC(=O)[C@@H](NC(=O)[C@H](Cc1ccc(O)cc1)NC(=O)[C@H](Cc1ccc(O)cc1)NC(=O)[C@H](CCCNC(=N)N)NC(=O)[C@H](CCC(N)=O)NC(=O)[C@H](CC(C)C)NC(=O)[C@H](CCC(=O)O)NC(=O)[C@H](CCC(=O)O)NC(=O)[C@@H]1CCCN1C(=O)[C@H](CO)NC(=O)[C@H](C)NC(=O)[C@H](CC(=O)O)NC(=O)[C@H](CCC(=O)O)NC(=O)[C@H](CCC(=O)O)NC(=O)[C@@H]1CCCN1C(=O)[C@H](CCCCNC(=O)COCCOCCNC(=O)COCCOCCNC(=O)CC[C@H](NC(=O)CCCCCCCCCCCCCCCCC(=O)O)C(=O)O)NC(=O)[C@H](CCC(=O)O)NC(=O)[C@@H]1CCCN1C(=O)[C@H](C)NC(=O)CC(C)C)C(C)C)C(=O)N[C@@H](CCCNC(=N)N)C(=O)N[C@@H](Cc1c[nH]cn1)C(=O)N[C@@H](Cc1ccc(O)cc1)C(=O)N[C@@H](Cc1ccc(O)cc1)C(=O)N[C@@H](CC(N)=O)C(=O)N[C@@H](Cc1c[nH]c2ccccc12)C(=O)N[C@@H](CC(C)C)C(=O)N[C@H](C(=O)N[C@@H](CCCNC(=N)N)C(=O)N[C@@H](CCC(N)=O)C(=O)N[C@@H](CCCNC(=N)N)C(=O)N[C@@H](Cc1ccc(O)cc1)C(N)=O)[C@@H](C)O
B6: Compound 60 (peptide)
peptide: Isovaleryl-APEK([AEEA-AEEA-γGlu-C18 diacid])PEEAASPEELEQYYVSLRHYYNWLTRQRY-NH2
SMILES: CC(C)CC(=O)N[C@@H](C)C(=O)N1CCC[C@H]1C(=O)N[C@@H](CCC(=O)O)C(=O)N[C@@H](CCCCNC(=O)COCCOCCNC(=O)COCCOCCNC(=O)CC[C@H](NC(=O)CCCCCCCCCCCCCCCCC(=O)O)C(=O)O)C(=O)N1CCC[C@H]1C(=O)N[C@@H](CCC(=O)O)C(=O)N[C@@H](CCC(=O)O)C(=O)N[C@@H](C)C(=O)N[C@@H](C)C(=O)N[C@@H](CO)C(=O)N1CCC[C@H]1C(=O)N[C@@H](CCC(=O)O)C(=O)N[C@@H](CCC(=O)O)C(=O)N[C@@H](CC(C)C)C(=O)N[C@@H](CCC(=O)O)C(=O)N[C@@H](CCC(N)=O)C(=O)N[C@@H](Cc1ccc(O)cc1)C(=O)N[C@@H](Cc1ccc(O)cc1)C(=O)N[C@H](C(=O)N[C@@H](CO)C(=O)N[C@@H](CC(C)C)C(=O)N[C@@H](CCCNC(=N)N)C(=O)N[C@@H](Cc1c[nH]cn1)C(=O)N[C@@H](Cc1ccc(O)cc1)C(=O)N[C@@H](Cc1ccc(O)cc1)C(=O)N[C@@H](CC(N)=O)C(=O)N[C@@H](Cc1c[nH]c2ccccc12)C(=O)N[C@@H](CC(C)C)C(=O)N[C@H](C(=O)N[C@@H](CCCNC(=N)N)C(=O)N[C@@H](CCC(N)=O)C(=O)N[C@@H](CCCNC(=N)N)C(=O)N[C@@H](Cc1ccc(O)cc1)C(N)=O)[C@@H](C)O)C(C)C

The experiment deals with T1, human neuropeptide Y2 receptor. Description: radioligand competition (125I-PYY(1-36)), hNPY2R membranes. The gist of the method: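 Commercial human Y2 receptor membranes (0.5 μg protein/well) were incubated with peptide for 2 h at room temperature in 50 mM HEPES, 5 mM MgCl₂, 1 mM CaCl₂, pH 7.4, with 0.2% ovalbumin. Bound radioligand was separated on PEI-soaked GF/C filters and counted by scintillation, and IC₅₀ came from nonlinear sigmoidal regression.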
On the technique in general: Loss of bound radioactivity is the signal in a displacement assay; it reports binding, not function.
Take B1: affinity was put at a Ki of 3.35 nM. Consider B2, for which the affinity corresponds to a Ki of 1.26 nM. Compared with the last molecule, the Ki is about 2.7-fold lower.

B3: the inhibition constant (Ki) came out at 3.13 nM.

The molecule B4 had a Ki of 0.4 nM.

B5: affinity was put at a Ki of 1.02 nM. The result for B6 reads 5.95 nM.
